# Reference: patent US20120283184A1 (published 2012)
# Changes are numbered by the printed parent chain.
# B1: 3C5 PR3 (designed binder)
# chain: EVVAATPTSLLISWRHPHFPTRYYRITYGETGGNSPVQEFTVPLQPPTATISGLKPGVDYTITVYAVTGDHNDRELMTPISINYRT
# notes: in vitro translated
# B2: 4′G8 PR4 (designed binder)
# chain: B1 chain with G69V, D70A, H71Q, D73G, R74H, M77L
# notes: in vitro translated
# B3: 2′DelB9 PR4 (designed binder)
# chain: B1 chain with G69V, D70G, H71P, N72T, R74H, M77L
# notes: in vitro translated
# B4: 3′D4 PR4 (designed binder)
# chain: B1 chain with G69L, D70A, M77I
# notes: in vitro translated
# B5: 3′E4 PR4 (designed binder)
# chain: B1 chain with G69V, D70G, H71P, M77I, T78V
# notes: in vitro translated
# B6: 3F5 PR3 (designed binder)
# chain: B1 chain with G69V, D70A, H71Y, D73E, R74H, M77Y
# notes: in vitro translated
# B7: 3A8 PR3 (designed binder)
# chain: B1 chain with G69E, D70A, N72H, D73G, R74H, T78I
# notes: in vitro translated
# B8: 3H9 PR3 (designed binder)
# chain: B1 chain with G69V, D70S, H71Q, N72Q, D73N, R74H, M77L
# notes: in vitro translated
# B9: 1′DelH7 PR4 (designed binder)
# chain: B1 chain with G69V, D70G, H71Q, R74Q, M77L
# notes: in vitro translated
# B10: 4′B6 PR4 (designed binder)
# chain: B1 chain with G69L, D70A, H71Q, R74H, M77I
# notes: in vitro translated
# B11: 1′DelG11 PR4 (designed binder)
# chain: B1 chain with G69L, D70A, H71Q, D73G, R74H, E75V, M77I
# notes: in vitro translated
# B12: 3′E8 PR4 (designed binder)
# chain: B1 chain with G69V, D70A, H71Q, E75Q, M77F
# notes: in vitro translated
# B13: 4A4 PR3 (designed binder)
# chain: B1 chain with G69V, D70A, H71Q, R74H, M77F
# notes: in vitro translated
# B14: 1′DelH9 PR4 (designed binder)
# chain: B1 chain with G69V, D70G, H71Q, R74H, M77I
# notes: in vitro translated
# B15: 2′DelB10 PR4 (designed binder)
# chain: B1 chain with G69V, D70T, R74H, M77L
# notes: in vitro translated
# B16: 3E6 PR3 (designed binder)
# chain: B1 chain with G69V, D70P, H71Q, D73G, R74H, M77I, P79M
# notes: in vitro translated
# B17: 4C4 PR3 (designed binder)
# chain: B1 chain with G69V, D70A, H71Q, N72D, R74H, M77F
# notes: in vitro translated
# B18: 2′DelB11 PR4 (designed binder)
# chain: B1 chain with G69V, D70G, H71Q, R74H
# notes: in vitro translated
# B19: 3D4 PR3 (designed binder)
# chain: B1 chain with G69V, D70G, H71W, R74H, M77I
# notes: in vitro translated
# B20: 3G10 PR3 (designed binder)
# chain: B1 chain with G69V, D70V, D73G, R74H, L76I, M77L
# notes: in vitro translated
# B21: 3F4 PR3 (designed binder)
# chain: B1 chain with G69M, D70G, H71Y, N72E, R74H, M77I
# notes: in vitro translated
# B22: 3D11 PR3 (designed binder)
# chain: B1 chain with G69L, D70G, H71Q, N72E, D73N, R74Q, M77I
# notes: in vitro translated
# B23: 3F11 PR3 (designed binder)
# chain: B1 chain with G69V, D70G, H71L, N72T, R74H, E75V, M77L
# notes: in vitro translated
# B24: 2H12 PR3 (designed binder)
# chain: VSDVPRDLEVVAATPTSLLISWRHPHFPTRYYRITYGETGGNSPVQEFTVPLQPPTATISGLKPGVDYTITVYAVTEGYQNHELSVPISINYRT
# notes: in vitro translated
# B25: 2′G11-PR4 (designed binder)
# chain: B24 chain with E77G, Y79Q, Q80M, H82R, E83V, S85M, V86T
# notes: in vitro translated
# B26: 2′D5-PR4 (designed binder)
# chain: B24 chain with E77V, G78A, Y79W, Q80N, N81D, E83M, S85M, V86T
# notes: in vitro translated
# B27: 2′A1-PR4 (designed binder)
# chain: B24 chain with E77S, Y79H, Q80N, N81D, E83M, S85M, V86I
# notes: in vitro translated
# B28: 2H10 PR3 (designed binder)
# chain: B24 chain with E77L, G78A, Y79P, Q80S, N81A, H82R, S85M, V86T
# notes: in vitro translated
# B29: 159Q(8)L (designed binder)
# chain: B24 chain with T56A, V72G, E77M, G78A, Y79Q, Q80S, N81G, S85F, V86T
# notes: also called clone 159
# B30: B11 (designed binder)
# chain: B1 chain with V64G, G69V, D70E, H71R, D73G, M77K
# notes: 10Fn3 clone, Del 1-8
# B31: B12 (designed binder)
# chain: B1 chain with V64G, G69V, D70E, H71R, D73G, M77R
# notes: 10Fn3 clone, Del 1-8
# B32: G1 (designed binder)
# chain: B1 chain with V64G, G69E, D70G, H71R, D73G, T78V
# notes: 10Fn3 clone, Del 1-8
# B33: F12 (designed binder)
# chain: B1 chain with V64G, G69D, D70G, H71R, D73G, R74H
# notes: 10Fn3 clone, Del 1-8
# B34: EGE11 (SEQ ID NO: 87) (designed binder)
# chain: B1 chain with V64G, G69M, D70G, H71K, M77L
# Target: T1, human vascular endothelial growth factor receptor-2 Fc chimera (KDR-Fc) (human, UniProt P35968 20-764)
# T1 construct: range 1-764; Purchased from R&D Systems; also called hKDR; human VEGF-R2-Fc; not shown: human IgG1 Fc
# Assay: radioactive equilibrium binding, 1 nM KDR-Fc
# Method: (§1) To prepare ³⁵S-labeled binding proteins for analysis, mRNA was prepared as described above for RNA-protein fusion production but the linker ligation step was omitted. The mRNA was expressed using rabbit reticulocyte lysate translation kit (Ambion) in the presence of ³⁵S-labeled Met at 30° C. for 1 hour. Expressed protein was purified on M2-agarose Flag beads (Sigma) as described above. This procedure produced the encoded protein without the nucleic acid tail. In a direct binding assay, VEGF-R2-Fc fusions in concentrations ranging from 0 to 200 nM were added to a constant concentration of the purified protein (0.2 or 0.5 nM) and incubated at 30° C. for 1 hour in buffer B. The receptor-binder complexes were captured using Protein A magnetic beads for another 10 minutes at room temperature using a Kingfisher™ The beads were washed with six reaction volumes of buffer B. The protein was eluted from the beads with 100 μL of 0.1 M KOH. 50 μL of the reaction mixture and elution were dried onto a LumaPlate-96 (Packard) and the amount of ³⁵S on the plate was measured using a TopCount NXT instrument (Packard). The amount of fibronectin-based scaffold protein bound to the target was estimated as a percent of radioactivity eluted from Protein A magnetic beads compare to radioactivity in the reaction mixture. Nonspecific binding of fibronectin-based scaffold proteins to the beads was determined by measuring binding in the absence of KDR-Fc and represented less than 1-2% of the input. Specific binding was obtained through subtraction of nonspecific binding from total binding. Data was analyzed using the GraphPad Prizm software (GraphPad Software, Inc, San Diego, Calif.), fitted using a one site, non-linear binding equation.
# T1 sequence (P35968 20-764 limits assumed, change not shown, form in doubt): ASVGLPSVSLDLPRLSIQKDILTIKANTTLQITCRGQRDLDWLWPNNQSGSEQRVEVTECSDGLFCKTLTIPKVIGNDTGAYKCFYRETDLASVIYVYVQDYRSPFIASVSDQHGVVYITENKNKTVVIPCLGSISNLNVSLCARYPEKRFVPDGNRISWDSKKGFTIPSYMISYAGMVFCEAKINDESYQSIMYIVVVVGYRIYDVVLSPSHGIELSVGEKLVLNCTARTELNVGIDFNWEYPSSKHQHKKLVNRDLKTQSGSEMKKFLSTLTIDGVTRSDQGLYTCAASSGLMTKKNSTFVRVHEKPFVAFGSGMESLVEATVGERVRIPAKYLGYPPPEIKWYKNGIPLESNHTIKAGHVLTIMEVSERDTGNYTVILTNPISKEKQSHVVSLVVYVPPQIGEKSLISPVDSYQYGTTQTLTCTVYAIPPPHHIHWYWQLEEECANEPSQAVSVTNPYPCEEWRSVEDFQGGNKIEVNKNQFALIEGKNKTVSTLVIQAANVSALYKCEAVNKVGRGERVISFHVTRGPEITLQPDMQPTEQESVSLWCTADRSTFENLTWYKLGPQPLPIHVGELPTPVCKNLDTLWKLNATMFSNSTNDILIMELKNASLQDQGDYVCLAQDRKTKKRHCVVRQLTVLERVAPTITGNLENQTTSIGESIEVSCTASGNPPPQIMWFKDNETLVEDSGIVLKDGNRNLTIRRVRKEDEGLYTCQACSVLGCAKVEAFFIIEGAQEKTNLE
row,"Binding to 1 nM KDR, %",Binder
1,12%,B1
2,13%,B2
3,11%,B3
4,12%,B4
5,12%,B5
6,11%,B6
7,12%,B7
8,11%,B8
9,11%,B9
10,11%,B10
11,11%,B11
12,12%,B12
13,10%,B13
14,10%,B14
15,11%,B15
16,12%,B16
17,10%,B17
18,11%,B18
19,10%,B19
20,10%,B20
21,10%,B21
22,10%,B22
23,10%,B23
24,10%,B24
25,12%,B25
26,11%,B26
27,11%,B27
28,10%,B28

# Target: T2, Flk-1-Fc (mouse vascular endothelial growth factor receptor-2 Fc chimera) (mouse, UniProt P35918 20-762)
# T2 construct: Purchased from R&D Systems; also called mouse VEGF-R2-Fc; not shown: Fc part of the purchased chimera
# Assay: method not given
row,Kd,Binder
1,> 3000 nM,B29

# Target: T3, Flk-1-Fc (mouse vascular endothelial growth factor receptor-2 Fc chimera) (mouse, UniProt P35918 20-762)
# T3 construct: Bought from R&D Systems; also called mouse VEGFR-2-Fc; Fc part of the bought chimera not given
# Assay: radioactive equilibrium binding assay, % bound at 1 nM Flk-1-Fc
# Method: as §1
row,"Binding to 1 nM Flk-1, %",Binder
1,21%,B30
2,21%,B31
3,2%,B32
4,1%,B33

# Target: Flk-1-Fc (mouse vascular endothelial growth factor receptor-2 Fc chimera) (mouse) (UniProt P35918)
# Assay: as above
# Flk-1-Fc (mouse vascular endothelial growth factor receptor-2 Fc chimera) (mouse), sequence (P35918 20-762, change not shown): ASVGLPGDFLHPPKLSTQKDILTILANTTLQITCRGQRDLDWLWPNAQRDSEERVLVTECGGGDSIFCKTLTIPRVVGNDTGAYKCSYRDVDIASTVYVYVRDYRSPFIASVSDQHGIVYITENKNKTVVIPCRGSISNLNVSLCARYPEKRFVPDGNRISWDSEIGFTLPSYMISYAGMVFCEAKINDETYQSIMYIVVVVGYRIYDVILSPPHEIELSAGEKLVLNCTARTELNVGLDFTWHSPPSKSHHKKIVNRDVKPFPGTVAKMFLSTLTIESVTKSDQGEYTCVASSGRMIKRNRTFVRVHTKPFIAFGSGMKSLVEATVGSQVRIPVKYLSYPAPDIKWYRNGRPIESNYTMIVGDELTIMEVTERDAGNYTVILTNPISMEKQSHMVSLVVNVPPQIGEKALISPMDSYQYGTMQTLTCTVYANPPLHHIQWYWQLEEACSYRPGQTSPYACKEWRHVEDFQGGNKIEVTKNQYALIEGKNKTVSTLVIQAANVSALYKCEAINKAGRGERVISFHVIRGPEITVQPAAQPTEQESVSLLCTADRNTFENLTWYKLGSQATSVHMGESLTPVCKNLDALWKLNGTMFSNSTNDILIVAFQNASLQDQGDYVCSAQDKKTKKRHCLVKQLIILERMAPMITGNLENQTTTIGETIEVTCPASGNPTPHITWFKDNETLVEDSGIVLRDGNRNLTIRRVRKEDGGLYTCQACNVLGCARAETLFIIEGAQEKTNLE
row,"Binding to 1 nM Flk-1, %",Binder
1,1%,B34
